# Experimental data reported in patent publication US10047131B2, “Peptides and combination of peptides for use in immunotherapy against ovarian cancer and other cancers” (immatics biotechnologies GmbH, priority 2015, dated 2018).
# Target: HLA-A*02:01 (Homo sapiens, UniProt P04439, D140Y/D185E/D98H/E176V/E277Q/G131W/G231S/I119V/I121R/I166T/I218V/L300P/L318F/N151K/N90K/P208A/P217A/Q86G/Q94H/R138H/R169H/T345S)
# Assay: MHC binding assay (UV-ligand exchange, ELISA of exchange yield)
# Conditions: binding to HLA-A*02:01, UV-ligand exchange
# Outline: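 Peptide–MHC complexes made by UV-ligand exchange, where a UV-cleavable peptide is replaced by the test peptide. Exchange yield measured by ELISA: complexes diluted 100-fold on streptavidin-coated plates, stabilized complexes detected with HRP anti-β2m, TMB read at 450 nm.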
row,"Peptide exchange (MHC class I binding score, peptide exchange yield)",Substance
1,“+++” (≥50 = +++),350 (ALLDVTHSELTV; listed as Homo sapiens) [compound 350]
2,“+++” (≥50 = +++),351 (SLIPNLRNV; listed as Homo sapiens) [compound 351]
3,“+++” (≥50 = +++),352 (SLLELLHIYV; listed as Homo sapiens) [compound 352]
4,“++” (≥20% = ++),353 (YLFEMDSSL; listed as Homo sapiens) [compound 353]
5,“++” (≥20% = ++),354 (LILEGVDTV; listed as Homo sapiens) [compound 354]
6,“++” (≥20% = ++),355 (SIQQSIERLLV; listed as Homo sapiens) [compound 355]
7,“+++” (≥50 = +++),356 (KLLGKLPEL; listed as Homo sapiens) [compound 356]
8,“+++” (≥50 = +++),357 (SMHDLVLQV; listed as Homo sapiens) [compound 357]
9,“++++” (≥75% = ++++),358 (ALDEYTSEL; listed as Homo sapiens) [compound 358]
10,“+++” (≥50 = +++),359 (YLLPESVDL; listed as Homo sapiens) [compound 359]
11,“+++” (≥50 = +++),361 (ALYELEGTTV; listed as Homo sapiens) [compound 361]
12,“+++” (≥50 = +++),362 (TLYGLSVLL; listed as Homo sapiens) [compound 362]
13,“++” (≥20% = ++),363 (KVLDVSDLESV; listed as Homo sapiens) [compound 363]
14,“+++” (≥50 = +++),364 (LLQNEQFEL; listed as Homo sapiens) [compound 364]
15,“+++” (≥50 = +++),365 (YVIDQGETDVYV; listed as Homo sapiens) [compound 365]
16,“+++” (≥50 = +++),366 (RLLDMGETDLML; listed as Homo sapiens) [compound 366]
17,“+++” (≥50 = +++),367 (SLQNHNHQL; listed as Homo sapiens) [compound 367]
18,“+++” (≥50 = +++),369 (GLFPEHLIDV; listed as Homo sapiens) [compound 369]
19,“+++” (≥50 = +++),370 (SLLQDLVSV; listed as Homo sapiens) [compound 370]
20,“++++” (≥75% = ++++),371 (FLQAHLHTA; listed as Homo sapiens) [compound 371]
21,“++” (≥20% = ++),372 (TMLLNIPLV; listed as Homo sapiens) [compound 372]
22,“++” (≥20% = ++),373 (SLLEDKGLAEV; listed as Homo sapiens) [compound 373]
23,“++” (≥20% = ++),374 (FLLQQHLISA; listed as Homo sapiens) [compound 374]
24,“++” (≥20% = ++),375 (SLTETIEGV; listed as Homo sapiens) [compound 375]
25,“++” (≥20% = ++),376 (AMFESSQNVLL; listed as Homo sapiens) [compound 376]
26,“++” (≥20% = ++),377 (FLLDSSASV; listed as Homo sapiens) [compound 377]
27,“+++” (≥50 = +++),378 (ALGYFVPYV; listed as Homo sapiens) [compound 378]
28,“++” (≥20% = ++),379 (IMEGTLTRV; listed as Homo sapiens) [compound 379]
29,“++” (≥20% = ++),380 (TLIEDEIATI; listed as Homo sapiens) [compound 380]
30,“++” (≥20% = ++),381 (FIDEAYVEV; listed as Homo sapiens) [compound 381]

# Second part, the substance before the results:
row,Substance,"Peptide exchange (MHC class I binding score, peptide exchange yield)"
1,312 (IISDLTIAL; listed as Homo sapiens) [compound 312],“+++” (≥50 = +++)
2,313 (VLFDDELLMV; listed as Homo sapiens) [compound 313],“+++” (≥50 = +++)
3,314 (ALIAEGIALV; listed as Homo sapiens) [compound 314],“+++” (≥50 = +++)
4,315 (YLQDVVEQA; listed as Homo sapiens) [compound 315],“+++” (≥50 = +++)
5,316 (ILLERLWYV; listed as Homo sapiens) [compound 316],“+++” (≥50 = +++)
6,317 (SLAALVVHV; listed as Homo sapiens) [compound 317],“+++” (≥50 = +++)
7,318 (GLINTGVLSV; listed as Homo sapiens) [compound 318],“++” (≥20% = ++)
8,319 (SLEPQIQPV; listed as Homo sapiens) [compound 319],“++” (≥20% = ++)
9,320 (KMFEFVEPLL; listed as Homo sapiens) [compound 320],“++++” (≥75% = ++++)
10,321 (GLFEDVTQPGILL; listed as Homo sapiens) [compound 321],“++++” (≥75% = ++++)
11,322 (TLMTSLPAL; listed as Homo sapiens) [compound 322],“+++” (≥50 = +++)
12,324 (FLYDEIEAEV; listed as Homo sapiens) [compound 324],“+++” (≥50 = +++)
13,325 (FIMPATVADATAV; listed as Homo sapiens) [compound 325],“+++” (≥50 = +++)
14,326 (FLPEALDFV; listed as Homo sapiens) [compound 326],“+++” (≥50 = +++)
15,327 (GLAPFTEGISFV; listed as Homo sapiens) [compound 327],“+++” (≥50 = +++)
16,328 (ALNDQVFEI; listed as Homo sapiens) [compound 328],“+++” (≥50 = +++)
17,329 (FLVTLNNVEV; listed as Homo sapiens) [compound 329],“++++” (≥75% = ++++)
18,330 (QLALKVEGV; listed as Homo sapiens) [compound 330],“+++” (≥50 = +++)

row,Substance,"Peptide exchange (MHC class I binding score, peptide exchange yield)"
1,331 (KVDTVWVNV; listed as Homo sapiens) [compound 331],“+++” (≥50 = +++)
2,332 (YLISELEAA; listed as Homo sapiens) [compound 332],“+++” (≥50 = +++)
3,333 (FLPDANSSV; listed as Homo sapiens) [compound 333],“++” (≥20% = ++)
4,334 (TLTKVLVAL; listed as Homo sapiens) [compound 334],“+++” (≥50 = +++)
5,335 (YSLSSVVTV; listed as Homo sapiens) [compound 335],“+++” (≥50 = +++)
6,336 (ILLTAIVQV; listed as Homo sapiens) [compound 336],“+++” (≥50 = +++)
7,337 (HLLSELEAAPYL; listed as Homo sapiens) [compound 337],“++++” (≥75% = ++++)
8,339 (GLWEIENNPTVKA; listed as Homo sapiens) [compound 339],“++++” (≥75% = ++++)
9,340 (ALLSMTFPL; listed as Homo sapiens) [compound 340],“++++” (≥75% = ++++)
10,341 (SQIALNEKLVNL; listed as Homo sapiens) [compound 341],“+++” (≥50 = +++)
11,342 (HIYDKVMTV; listed as Homo sapiens) [compound 342],“+++” (≥50 = +++)
12,343 (SLLEVNEESTV; listed as Homo sapiens) [compound 343],“+++” (≥50 = +++)
13,344 (YLQDQHLLLTV; listed as Homo sapiens) [compound 344],“+++” (≥50 = +++)
14,345 (VIWKALIHL; listed as Homo sapiens) [compound 345],“+++” (≥50 = +++)
15,346 (LLDSKVPSV; listed as Homo sapiens) [compound 346],“+++” (≥50 = +++)
16,347 (SLFKHDPAAWEA; listed as Homo sapiens) [compound 347],“++++” (≥75% = ++++)
17,348 (ILLDVKTRL; listed as Homo sapiens) [compound 348],“++++” (≥75% = ++++)
18,349 (SLTEYLQNV; listed as Homo sapiens) [compound 349],“++++” (≥75% = ++++)
